Values belong to the binder of their own block, whether it stands above or below them. Starred links: 1 amine or outer side, 2 acyl side, 3 side chain; linkers in the order of their positions; H or OH if unused. Non-standard residues stand in square brackets, D forms with d. Groups on a side chain read outwards from the residue. No end group written: not given here. *: point of attachment. C20 diacid = O=C(O)CCCCCCCCCCCCCCCCCCC(=O)*; C18 diacid = O=C(O)CCCCCCCCCCCCCCCCC(=O)*; γGlu = O=C(O)[C@H](CCC(=O)[*:2])N[*:1]; AEEA = NCCOCCOCC(=O)O; Aib = CC(C)(N)C(=O)O
Biological target: human corticotropin-releasing factor 2α (CRF2 α receptor) (human), Q13324
Sequence (Q13324 20-411): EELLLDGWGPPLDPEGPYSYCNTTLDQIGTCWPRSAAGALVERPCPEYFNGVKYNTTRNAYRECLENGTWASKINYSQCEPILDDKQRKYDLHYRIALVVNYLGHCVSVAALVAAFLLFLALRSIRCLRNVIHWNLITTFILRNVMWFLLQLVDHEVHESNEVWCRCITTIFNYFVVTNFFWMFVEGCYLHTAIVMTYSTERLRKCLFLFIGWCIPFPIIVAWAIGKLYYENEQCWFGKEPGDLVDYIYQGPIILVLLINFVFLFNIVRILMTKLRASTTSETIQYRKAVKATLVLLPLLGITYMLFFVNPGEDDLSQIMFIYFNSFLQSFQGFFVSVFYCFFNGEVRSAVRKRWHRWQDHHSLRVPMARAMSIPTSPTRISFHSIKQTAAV
Assay: cell-based or functional assay

EC50 [nM], 0% HSA: 10.1 nM
B1: SEQ ID NO: 82 (peptide)
peptide: IVLSLDVPTKLK([AEEA-AEEA-γGlu-C18 diacid])QILLKQERQKK[Aib]REQAETNVRILERV-NH2
modifications: N-terminus assumed
SMILES: CC[C@H](C)[C@H](N)C(=O)N[C@H](C(=O)N[C@@H](CC(C)C)C(=O)N[C@@H](CO)C(=O)N[C@@H](CC(C)C)C(=O)N[C@@H](CC(=O)O)C(=O)N[C@H](C(=O)N1CCC[C@H]1C(=O)N[C@H](C(=O)N[C@@H](CCCCN)C(=O)N[C@@H](CC(C)C)C(=O)N[C@@H](CCCCNC(=O)COCCOCCNC(=O)COCCOCCNC(=O)CC[C@H](NC(=O)CCCCCCCCCCCCCCCCC(=O)O)C(=O)O)C(=O)N[C@@H](CCC(N)=O)C(=O)N[C@H](C(=O)N[C@@H](CC(C)C)C(=O)N[C@@H](CC(C)C)C(=O)N[C@@H](CCCCN)C(=O)N[C@@H](CCC(N)=O)C(=O)N[C@@H](CCC(=O)O)C(=O)N[C@@H](CCCNC(=N)N)C(=O)N[C@@H](CCC(N)=O)C(=O)N[C@@H](CCCCN)C(=O)N[C@@H](CCCCN)C(=O)NC(C)(C)C(=O)N[C@@H](CCCNC(=N)N)C(=O)N[C@@H](CCC(=O)O)C(=O)N[C@@H](CCC(N)=O)C(=O)N[C@@H](C)C(=O)N[C@@H](CCC(=O)O)C(=O)N[C@H](C(=O)N[C@@H](CC(N)=O)C(=O)N[C@H](C(=O)N[C@@H](CCCNC(=N)N)C(=O)N[C@H](C(=O)N[C@@H](CC(C)C)C(=O)N[C@@H](CCC(=O)O)C(=O)N[C@@H](CCCNC(=N)N)C(=O)N[C@H](C(N)=O)C(C)C)[C@@H](C)CC)C(C)C)[C@@H](C)O)[C@@H](C)CC)[C@@H](C)O)C(C)C)C(C)C

EC50 [nM], 0% HSA: 0.14 nM
EC50 [nM], 0.1% HSA: 18.5 nM
B2: SEQ ID NO: 81 (peptide)
peptide: IVLSLDVPIKLK([AEEA-AEEA-γGlu-C20 diacid])QILLEQEKQK[Aib]QREQAETNKQILAQV-NH2
modifications: N-terminus assumed
SMILES: CC[C@H](C)[C@H](N)C(=O)N[C@H](C(=O)N[C@@H](CC(C)C)C(=O)N[C@@H](CO)C(=O)N[C@@H](CC(C)C)C(=O)N[C@@H](CC(=O)O)C(=O)N[C@H](C(=O)N1CCC[C@H]1C(=O)N[C@H](C(=O)N[C@@H](CCCCN)C(=O)N[C@@H](CC(C)C)C(=O)N[C@@H](CCCCNC(=O)COCCOCCNC(=O)COCCOCCNC(=O)CC[C@H](NC(=O)CCCCCCCCCCCCCCCCCCC(=O)O)C(=O)O)C(=O)N[C@@H](CCC(N)=O)C(=O)N[C@H](C(=O)N[C@@H](CC(C)C)C(=O)N[C@@H](CC(C)C)C(=O)N[C@@H](CCC(=O)O)C(=O)N[C@@H](CCC(N)=O)C(=O)N[C@@H](CCC(=O)O)C(=O)N[C@@H](CCCCN)C(=O)N[C@@H](CCC(N)=O)C(=O)N[C@@H](CCCCN)C(=O)NC(C)(C)C(=O)N[C@@H](CCC(N)=O)C(=O)N[C@@H](CCCNC(=N)N)C(=O)N[C@@H](CCC(=O)O)C(=O)N[C@@H](CCC(N)=O)C(=O)N[C@@H](C)C(=O)N[C@@H](CCC(=O)O)C(=O)N[C@H](C(=O)N[C@@H](CC(N)=O)C(=O)N[C@@H](CCCCN)C(=O)N[C@@H](CCC(N)=O)C(=O)N[C@H](C(=O)N[C@@H](CC(C)C)C(=O)N[C@@H](C)C(=O)N[C@@H](CCC(N)=O)C(=O)N[C@H](C(N)=O)C(C)C)[C@@H](C)CC)[C@@H](C)O)[C@@H](C)CC)[C@@H](C)CC)C(C)C)C(C)C

— patent US12679878B2, “CRF2 receptor agonists and their use in therapy” (SANOFI, priority 2020, dated 2026)
